From patent publication US20060199768A1 come the findings set out here.

The target in this experiment is RecA protein (E. coli).

On to RecA N-30 (peptide), for which the I50, ATPase activity of the RecA NPF stood at 600 µM.
